Measured values published in the supplement of paper PMC12764529.
± gives the half width of the 95% confidence interval.

Assays:
[1] = folding stability dG unfold from trypsin proteolysis; higher = more stable
Outline: (§1)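 Designed mini-proteins (under 80 residues, no cysteine) in a PA-tagged cDNA display construct were digested with trypsin and chymotrypsin. Each protease was used at 11 concentrations (threefold dilutions) plus a no-protease condition, followed by sequencing. K50 was inferred by Bayesian fitting of sequencing counts, and unfolding free energy was derived against a sequence-predicted unfolded-state K50 and a shared folded-state K50, per protease or combined. Only designs with AlphaFold2 dimer inter-PAE above 15 were kept.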

[2] = folding stability dG unfold from chymotrypsin proteolysis; higher = more stable
Outline: as §1

[3] = folding stability dG unfold (combined trypsin and chymotrypsin); higher = more stable
Outline: as §1

Sequence	folding stability dG unfold [1]	folding stability dG unfold [2]	folding stability dG unfold [3]
SAGGKDVKPIPVRIKIWYPDDGKPIHEIPVSAYQMDDKIHITFESPELLQFAKELAQKKGFKVEIEPSAGGS [r16_327_TrROS]	0.513 ± 0.047 kcal/mol	0.751 ± 0.12 kcal/mol	0.695 ± 0.11 kcal/mol
SAGGKEKKKEKEEKKKKPKPKFIKIKLSPEELLKLAKELPNIDRIFVEVDGKLYEFDAKTGKIVEVDSAGGS [r16_214_TrROS_Hall]	1.28 ± 0.1 kcal/mol	2.4 ± 0.08 kcal/mol	1.97 ± 0.18 kcal/mol
SAGGKEKKPKVELKITSISEFEGGLVIEGEATTPTKKIKVLAVYDPSTGKITVWRETPEGIEPLAEFGSAGG [r13_445_TrMRF]	1.76 ± 0.059 kcal/mol	2.401 ± 0.018 kcal/mol	2.18 ± 0.049 kcal/mol
SAGGKEKVKIKIKIIDKKTNKVYEAEATFDKETGKVTITFPDGSKITFDLKTNKLYIEKDGKIIEIESAGGS [r16_743_TrROS_Hall]	2.66 ± 0.27 kcal/mol	3.53 ± 0.091 kcal/mol	3.19 ± 0.28 kcal/mol
SAGGKEKYKIKIYNKKTGKEYEFEIPLDEIVKYDKKNKKIYIKLKNGKKLEFKSLEDIVKIEIEKLPSAGGS [r8_111_TrROS_Hall]	2.34 ± 0.088 kcal/mol	3.48 ± 0.056 kcal/mol	3.14 ± 0.14 kcal/mol
SAGGKELILKLKIEVNGKTLTIEVKVSPEELKKLLDELKKLGIKEIEIESIEFDKETNEIKVKVKVKSAGGS [r8_219_TrROS_Hall]	2.52 ± 0.063 kcal/mol	4.09 ± 0.17 kcal/mol	3.77 ± 0.15 kcal/mol
SAGGKEVKPIKGKVKITVNGKEIEVEVKKAKIVKNKDGSYYIFIEKDGKKLLIKLKNGKLVKIEEVPSAGGS [r16_721_TrROS_Hall]	2.37 ± 0.097 kcal/mol	3.89 ± 0.042 kcal/mol	3.42 ± 0.089 kcal/mol
SAGGKEWYIKVSIEHRNPNNGEKRELSITIPVEGMSAEEALDIARELARHLPPENVKIEVDIVPLDDSAGGS [r16_774_TrROS]	1.78 ± 0.051 kcal/mol	2.08 ± 0.032 kcal/mol	1.86 ± 0.17 kcal/mol
SAGGKEYTAKVVEIKKVGNKIFIKIKLSDGRELTIEIKTPEEAKKLKVGDTVKITVNEDGSLTIEVLSAGGS [r16_2_TrROS_Hall]	4.22 ± 0.15 kcal/mol	4.33 ± 0.064 kcal/mol	4.29 ± 0.074 kcal/mol
SAGGKGKAVPFEIEFEAPGGKKVKAKITRIDLPDKPIYRVEVEVDGKKITYTATEDEAANLTFTPGGSAGGS [r8_257_TrMRF]	1.48 ± 0.058 kcal/mol	2.21 ± 0.035 kcal/mol	1.92 ± 0.16 kcal/mol
SAGGKIEVEPEVELYRTPDGRLVARPKPVKVKITLKLTITNENGEKKTIEVEADTPEEALAALKALSSAGGS [r8_440_TrROS_Hall]	1.03 ± 0.053 kcal/mol	0.726 ± 0.2 kcal/mol	0.965 ± 0.14 kcal/mol
SAGGKIIAEGEFELEDGYVVRVKVEYDEETGELRVEVEVFEVEVELPEVEVKREFSDEELTEEEKEASAGGS [r8_461_TrROS_Hall]	0.897 ± 0.19 kcal/mol	1.77 ± 0.17 kcal/mol	1.39 ± 0.25 kcal/mol
SAGGKIKIKSVEVQPNPDGMRKVTLEFQDGGKEHKVEIYVHPGGIMISIPNGKTRTIPWDDLDDIKLSAGGS [r16_593_TrROS]	0.52 ± 0.093 kcal/mol	1.22 ± 0.15 kcal/mol	1.01 ± 0.18 kcal/mol
SAGGKIKIQFNGQEFTITEFEIIEPQPNKGGGPYYRIRIKFPNGPMEIMIPPNMPPEIKPGDTFTIASAGGS [r16_638_TrROS]	1.797 ± 0.015 kcal/mol	1.96 ± 0.032 kcal/mol	1.93 ± 0.066 kcal/mol
SAGGKIPKNAKILEVEFDPETGYIRIKVEFYDKNGKLIKKAEITIPILPVPPLSPEDIEKLLKALASSAGGS [r16_697_TrMRF]	3.15 ± 0.12 kcal/mol	3.85 ± 0.17 kcal/mol	3.59 ± 0.17 kcal/mol
SAGGKIPPGMKLEIEDINIEFYNNGWIKITVKMTIWAPDGKTMTMTMTIVIPIRPPPPPPNDPENNESAGGS [r8_90_TrROS]	3.91 ± 0.45 kcal/mol	4.77 ± 0.24 kcal/mol	4.29 ± 0.44 kcal/mol
SAGGKKETVKVTLEIEVNGKKYKIELTKNKDGTVTIKITDKNGKKIEIEIPMSPEDVKKLLEELLKKLSAGG [r13_296_TrROS_Hall]	2.17 ± 0.11 kcal/mol	3.93 ± 0.094 kcal/mol	3.56 ± 0.076 kcal/mol
SAGGKKFYVEVKINLKDKTIYLIKEVKPGNLEKLIKEIEKKGIKEAGIDEIKIFPKDGYIEIKGGEKSAGGS [r8_219_TrMRF]	0.279 ± 0.061 kcal/mol	1.18 ± 0.08 kcal/mol	0.801 ± 0.1 kcal/mol

Sequence	folding stability dG unfold [1]	folding stability dG unfold [2]	folding stability dG unfold [3]
SAGGKKHYLVKVKATLTDKNGKKIAEVEFIFHFESPEELEEALKSIPSKYITEVKILSIEEIPEEEFSAGGS [r16_677_TrMRF]	3.36 ± 0.18 kcal/mol	3.65 ± 0.091 kcal/mol	3.55 ± 0.18 kcal/mol
SAGGKKIEIKEGDTVKLKNATITLNGKTFKIKDAEAKVVKVDKKKKKVIIEITLKNGKKETFVFDIKSAGGS [r8_215_TrROS_Hall]	2.4 ± 0.13 kcal/mol	3.331 ± 0.026 kcal/mol	3.15 ± 0.16 kcal/mol
SAGGKKKAKAYIVEKTTEKEGLKYYKVLIELGGKPLVFVIKSTSLEEVEEAIKKLAEELGVEVEIVPGSAGG [r13_750_TrMRF]	3.77 ± 0.1 kcal/mol	4.69 ± 0.089 kcal/mol	4.53 ± 0.08 kcal/mol
SAGGKKKIKIIEKKKINGKTILKIEVDGKKIIIIKTPNKVYIFVIDKNGKKKVIEMSPEEALKKLIEKSAGG [r13_98_TrROS_Hall]	2.08 ± 0.075 kcal/mol	3.95 ± 0.042 kcal/mol	3.59 ± 0.13 kcal/mol
SAGGKKKITITIEEVEELENGPLVYRVTIEVDGKTYEILIEADSLEEAKAAAEKLAEELNVEVTIEPVSAGG [r13_750_TrROS_Hall]	2.55 ± 0.097 kcal/mol	4.22 ± 0.048 kcal/mol	3.86 ± 0.11 kcal/mol
SAGGKKKKKKPKIVRVKITLKNENGEEIEIDEAVILPDGTILIRDKKTGKIFEIKLDDITKIEIEEVSAGGS [r8_410_TrROS_Hall]	1.99 ± 0.086 kcal/mol	3.02 ± 0.098 kcal/mol	2.8 ± 0.17 kcal/mol
SAGGKKKKLVIKDKKTNKYYEIENAKEIVKIEKVKGKDGKTYYVIYFKKTKKKIVIKTKEDLEKALKSAGGS [r8_206_TrROS_Hall]	1.26 ± 0.24 kcal/mol	1.18 ± 0.38 kcal/mol	1.23 ± 0.29 kcal/mol
SAGGKKKKVKKIKVKVKIKLKNGEEVTITEAYVLPDGTVIIKVEVTKPDGSKETKTFTIPLKDIEIESAGGS [r16_498_TrROS_Hall]	2.24 ± 0.075 kcal/mol	3.7 ± 0.07 kcal/mol	3.34 ± 0.11 kcal/mol
SAGGKKKLTLEIKIKVPKEEEEKAKEKAKKLAEELAKKLKEAGYKVKVTVEIDEETGEITVKVEVELPSAGG [r13_755_TrROS_Hall]	2.84 ± 0.34 kcal/mol	3.54 ± 0.55 kcal/mol	3.43 ± 0.49 kcal/mol
SAGGKKKPKIRIKVEIDGKTVEVEVESPEELVEALKELGFEVEVVEVTEKTVVIKLKDGKLIRIEKESAGGS [r8_365_TrROS_Hall]	1.91 ± 0.072 kcal/mol	2.06 ± 0.026 kcal/mol	2.02 ± 0.047 kcal/mol
SAGGKKKTIVLEVKVENLEEILKLAKEAAKAGDKVTVKVKLPDGEVYTVTVDVKTGKIVKVEKKKLPKSAGG [r13_873_TrROS_Hall]	1.98 ± 0.097 kcal/mol	3.3 ± 0.18 kcal/mol	2.81 ± 0.2 kcal/mol
SAGGKKKVIEIKIEIKVPKEELKNMTKEEIAELLKKELEKKGIKIKKIEIVEIEIDGDTVTITIRIELSAGG [r13_432_TrROS_Hall]	2.18 ± 0.15 kcal/mol	2.92 ± 0.2 kcal/mol	2.72 ± 0.3 kcal/mol
SAGGKKNEKKPIEIDGVFFNPETGKLVKIGPAKIIVPKNAKIELEAEVFDPVTGEVKKVKFKFELPAGSAGG [r13_206_TrMRF]	0.548 ± 0.057 kcal/mol	0.816 ± 0.094 kcal/mol	0.699 ± 0.14 kcal/mol
SAGGKKNKPKPKVKVKILSVTANPDPNTPGLLSVSVPVLIESDDEEFALALAKELAKLPNVKVVVLGGSAGG [r13_606_TrMRF]	1.34 ± 0.023 kcal/mol	1.42 ± 0.037 kcal/mol	1.42 ± 0.048 kcal/mol
SAGGKKVEITIEASPEEAEELAKKLEELFPDVKVEVVEVKPEEPVRVTVRVEVKVELSPEELKKLLESAGGS [r16_180_TrROS_Hall]	1.45 ± 0.085 kcal/mol	1.37 ± 0.11 kcal/mol	1.4 ± 0.14 kcal/mol
SAGGKKVIITKVETNKNGKKTYTVTLYYKDKKTNEWKKVAEFTFESKEEAENAAKELAKKLNLKIIPSAGGS [r16_512_TrROS_Hall]	3.08 ± 0.087 kcal/mol	5 ± 0.088 kcal/mol	4.77 ± 0.11 kcal/mol
SAGGKKVIVIEGLTEEEILEKIKEEFPEPVEVIIRRPDGYVVKITVDAKTREIKKVEVVKVPPPEKPSAGGS [r8_225_TrROS_Hall]	1.57 ± 0.15 kcal/mol	2.01 ± 0.16 kcal/mol	1.79 ± 0.29 kcal/mol
